# Experimental data from the RNAGym collection of RNA variant scans (doi:10.1021/acssynbio.7b00057).
# B1: Pistol ribozyme (parent)
# chain: GGGUCGUUGUUCCAUAAUCGCGUGGAUAUGGCACGCAAGUUUCUACCGGGCACCGUAAAUGUCCGACUGGAGCCGUUCGGGCGGCUAUAAACAGACCUCAGGCCCGAAGCGUGGCGGCACCUGCCGCCGGUGGUAAAAAAGAUCGGAAGAGCACACGUCU
# Variants of: B1
# Experiment: aptazyme ON/OFF ratio, guanine; higher = stronger switching; co-transcriptional cleavage with and without guanine
row,Variant,aptazyme ON/OFF ratio
1,U8C U11G C12U C13U,1.17
2,U8C U11G C12U C13A,1.08
3,U8C U11C,1.18
4,U8C U11A,1.15
5,U8C U11G,1.26
6,U8G G9A C13A,1.24
7,U8G G9A C13G,1.07
8,U8G G9A C13U,1.28
9,U8G G9A U10G U11C C13A,1.06
10,U8G G9A U10G U11C C13G,1.05
11,U8G G9A U10G U11C C13U,1.05
12,U8C U11C C13A,1.21
13,U8C U11C C13G,1.11
14,U8C U11C C13U,1.19
15,U8G G9A U11C C12G,1.25
16,U8G G9A U11C C12A,1.34
17,U8G G9A U11C C12U,1.07
18,U8G G9A U10A U11A C13A,1.12
19,U8G G9A U10A U11A C13U,1.17
20,U8G G9A U10A U11A C13G,1.01
21,U8C U10G U11G C12U C13U,1.23

row,Variant,aptazyme ON/OFF ratio
1,U8G G9A U10G C12G C13U,1.27
2,U8G G9A U10G C12G C13A,1.52
3,U8G G9A U10G C12G C13G,1.16
4,U8C U11C C12U C13A,1.19
5,U8C U11C C12U C13U,1.33
6,U8C U11C C12U C13G,1.5
7,U8G G9A U10G U11A C12A C13A,1.29
8,U8G G9A U10G U11A C12A C13U,1.48
9,U8G G9A U10G U11A C12A C13G,1.27
10,U8G G9A U10A U11C C12U,1.04
11,U8G G9A U10A U11C C12G,1.23
12,U8G G9A U10A U11C C12A,1.2
13,U8G G9A U10C U11C C12G C13U,1.05
14,U8G G9A U10C U11C C12G C13G,1.1
15,U8G G9A U10C U11C C12G C13A,1.09
16,U8G C12A C13G,1.13
17,U8G C12A C13U,1.12
18,U8G C12A C13A,1.25
19,U8G G9A U10C,2.29
20,U8G G9A U10G,2.04
21,U8G G9A U10A,1.24

row,Variant,aptazyme ON/OFF ratio
1,U8G G9A U11C C12G C13A,1.17
2,U8G G9A U11C C12G C13U,1.4
3,U8G G9A U11C C12G C13G,1.18
4,U8G G9A U10G U11G C12G C13U,1.37
5,U8G G9A U10G U11G C12G C13G,1.44
6,U8G G9A U10G U11G C12G C13A,1.19
7,U8G G9A U10C U11G C12U C13G,1.18
8,U8G G9A U10C U11G C12U C13A,1.34
9,U8G G9A U10C U11G C12U C13U,1.21
10,U8G G9A U11G C13G,1.05
11,U8G G9A U11G C13U,1.04
12,U8G G9A U11G C13A,1.07
13,U8G G9A U10A U11A C12U C13U,1.21
14,U8G G9A U10A U11A C12U C13G,1.09
15,U8G G9A U10A U11A C12U C13A,1.36
16,U8C U11G C12A C13G,1.16
17,U8C U11G C12A C13U,1.16
18,U8C U11G C12A C13A,1.16
19,U8G G9A U10A C12G C13U,1.35
20,U8G G9A U10A C12G C13G,1.3
21,U8G G9A U10A C12G C13A,1.22

row,Variant,aptazyme ON/OFF ratio
1,U8G G9A U10G C13U,1.58
2,U8G G9A U10G C13A,0.997
3,U8G G9A U10G C13G,1.34
4,U8G G9A C12U C13A,1.25
5,U8G G9A C12U C13G,1.28
6,U8G G9A C12U C13U,1.25
7,U8G G9C C12G C13U,1.05
8,U8G G9C C12G C13A,1.05
9,U8G G9C C12G C13G,1.03
10,U8G G9A U10G U11A C12G C13G,1.03
11,U8G G9A U10G U11A C12G C13A,1.21
12,U8G G9A U10G U11A C12G C13U,1.24
13,U8G G9A U10A U11A C12U,1.35
14,U8G G9A U10A U11A C12G,1.28
15,U8G G9A U10A U11A C12A,1.21
16,U8G G9A U11A C12U C13G,1.18
17,U8G G9A U11A C12U C13U,1.27
18,U8G G9A U11A C12U C13A,1.24
19,U8G G9A U11G C12A C13U,1.24
20,U8G G9A U11G C12A C13A,1.16
21,U8G G9A U11G C12A C13G,1.2
